Measurements as given in patent US20180186893A1 (NATIONAL RESEARCH COUNCIL OF CANADA, published 2018).

What was measured:
[1] = biological target: T1, hCA-IX fragment 2 (aa 38-136, +PG+) displayed on yeast as Aga2-HA-CA9-MYC (pPNL6), clone 2B (human, UniProt P32781 19-87; Q16790 38-136); assay: YSD whole yeast cell ELISA, native
T1 construct: not shown: HA tag; MYC tag

[2] = biological target: T2, rhCA-IV (human, UniProt P22748 19-283, limits assumed); assay: SPR, antibody captured by anti-human Fc
T2 construct: Bought; construct not described; also called recombinant human CA-IV
T2 sequence (P22748 19-283 limits assumed): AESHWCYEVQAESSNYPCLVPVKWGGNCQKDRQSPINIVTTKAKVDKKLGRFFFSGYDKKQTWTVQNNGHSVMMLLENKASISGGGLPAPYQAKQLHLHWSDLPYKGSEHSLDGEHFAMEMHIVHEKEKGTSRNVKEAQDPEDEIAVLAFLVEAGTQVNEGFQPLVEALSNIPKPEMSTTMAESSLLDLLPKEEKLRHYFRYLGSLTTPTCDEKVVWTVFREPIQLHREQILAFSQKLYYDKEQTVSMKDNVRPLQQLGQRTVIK

[3] = biological target: T3, rhCA-XII (human, UniProt O43570 25-291, limits assumed); assay: SPR, antibody captured by anti-human Fc
T3 construct: Bought; construct not described; also called recombinant human CA-XII (Sino Biologics)
T3 sequence (O43570 25-291 limits assumed): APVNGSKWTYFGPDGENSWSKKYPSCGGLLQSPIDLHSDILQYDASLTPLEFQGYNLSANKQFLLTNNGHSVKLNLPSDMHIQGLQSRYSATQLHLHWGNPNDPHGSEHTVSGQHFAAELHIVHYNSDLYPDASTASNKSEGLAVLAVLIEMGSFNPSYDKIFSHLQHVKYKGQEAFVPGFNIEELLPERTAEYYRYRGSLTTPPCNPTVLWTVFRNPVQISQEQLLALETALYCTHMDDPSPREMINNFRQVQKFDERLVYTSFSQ

[4] = biological target: T4, rhCA-XIV (human, UniProt Q9ULX7 16-290, limits assumed); assay: SPR, antibody captured by anti-human Fc
T4 construct: Bought; construct not described; also called recombinant human CA-XIV
T4 sequence (Q9ULX7 16-290 limits assumed): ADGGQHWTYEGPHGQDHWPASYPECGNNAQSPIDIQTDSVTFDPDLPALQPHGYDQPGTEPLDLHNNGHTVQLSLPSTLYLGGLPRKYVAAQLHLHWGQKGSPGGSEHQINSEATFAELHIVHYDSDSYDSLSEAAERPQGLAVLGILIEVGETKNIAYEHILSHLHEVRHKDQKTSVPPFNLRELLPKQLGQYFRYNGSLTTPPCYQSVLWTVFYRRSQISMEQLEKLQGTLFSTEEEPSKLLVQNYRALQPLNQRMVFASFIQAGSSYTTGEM

[5] = biological target: T5, rmCA-IX (murine, UniProt Q8VHB5 32-389, limits assumed); assay: SPR, antibody captured by anti-human Fc
T5 construct: Bought; construct not described; also called recombinant murine (rm)CA-IX
T5 sequence (Q8VHB5 32-389 limits assumed): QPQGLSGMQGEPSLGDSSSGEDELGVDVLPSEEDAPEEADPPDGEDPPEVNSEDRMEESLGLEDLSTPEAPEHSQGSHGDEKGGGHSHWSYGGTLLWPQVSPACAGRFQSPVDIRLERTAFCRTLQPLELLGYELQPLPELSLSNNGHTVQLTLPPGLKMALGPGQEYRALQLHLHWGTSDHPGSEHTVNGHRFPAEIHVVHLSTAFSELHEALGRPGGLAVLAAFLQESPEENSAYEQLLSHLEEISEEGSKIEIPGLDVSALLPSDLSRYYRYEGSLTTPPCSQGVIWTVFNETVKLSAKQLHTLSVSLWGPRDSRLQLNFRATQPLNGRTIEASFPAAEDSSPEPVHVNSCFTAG

[6] = biological target: T6, hCA-IX PG domain fragment #1 (aa 37-51) displayed on yeast as Aga2-HA-CA9-MYC (pPNL6), clone 1 A + B (human, UniProt P32781 19-87 (Saccharomyces cerevisiae entry)); assay: YSD whole yeast cell ELISA, native PG tiling fragment;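 further: monoclonal antibody binding to intact yeast cells displaying the fragment, read by ELISA, with the anti-CA-IX signal normalized against the anti-MYC display signal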
T6 construct: not shown: HA tag; MYC tag
T6 sequence (P32781 19-87 limits assumed): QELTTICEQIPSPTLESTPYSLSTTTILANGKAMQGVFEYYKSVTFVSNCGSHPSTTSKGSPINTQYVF

[7] = biological target: T7, hCA-IX PG domain fragment #2 (aa 47-61) displayed on yeast as Aga2-HA-CA9-MYC (pPNL6), clone 2 A + B (human, UniProt P32781 19-87 (Saccharomyces cerevisiae entry)); assay: as above
T7 construct: not shown: HA tag; MYC tag
T7 sequence (P32781 19-87 limits assumed): as above

[8] = biological target: T8, hCA-IX PG domain fragment #3 (aa 57-71) displayed on yeast as Aga2-HA-CA9-MYC (pPNL6), clone 3 A + B (human, UniProt P32781 19-87 (Saccharomyces cerevisiae entry)); assay: as above
T8 construct: not shown: HA tag; MYC tag
T8 sequence (P32781 19-87 limits assumed): as above

[9] = biological target: T9, hCA-IX PG domain fragment #4 (aa 67-81) displayed on yeast as Aga2-HA-CA9-MYC (pPNL6), clone 4 A + B (human, UniProt P32781 19-87 (Saccharomyces cerevisiae entry)); assay: as above
T9 construct: not shown: HA tag; MYC tag
T9 sequence (P32781 19-87 limits assumed): as above

[10] = biological target: T10, hCA-IX PG domain fragment #5 (aa 77-91) displayed on yeast as Aga2-HA-CA9-MYC (pPNL6), clone 5 A + B (human, UniProt P32781 19-87 (Saccharomyces cerevisiae entry)); assay: as above
T10 construct: not shown: HA tag; MYC tag
T10 sequence (P32781 19-87 limits assumed): as above

[11] = biological target: T11, hCA-IX PG domain fragment #6 (aa 87-101) displayed on yeast as Aga2-HA-CA9-MYC (pPNL6), clone 6 A + B (human, UniProt P32781 19-87 (Saccharomyces cerevisiae entry)); assay: as above
T11 construct: not shown: HA tag; MYC tag
T11 sequence (P32781 19-87 limits assumed): as above

[12] = biological target: T12, hCA-IX PG domain fragment #7 (aa 97-111) displayed on yeast as Aga2-HA-CA9-MYC (pPNL6), clone 7 A + B (human, UniProt P32781 19-87 (Saccharomyces cerevisiae entry)); assay: as above
T12 construct: not shown: HA tag; MYC tag
T12 sequence (P32781 19-87 limits assumed): as above

[13] = biological target: T13, hCA-IX PG domain fragment #8 (aa 107-121) displayed on yeast as Aga2-HA-CA9-MYC (pPNL6), clone 8 A + B (human, UniProt P32781 19-87 (Saccharomyces cerevisiae entry)); assay: as above
T13 construct: not shown: HA tag; MYC tag
T13 sequence (P32781 19-87 limits assumed): as above

[14] = biological target: T14, hCA-IX PG domain fragment #9 (aa 117-131) displayed on yeast as Aga2-HA-CA9-MYC (pPNL6), clone 9 A + B (human, UniProt P32781 19-87 (Saccharomyces cerevisiae entry)); assay: as above
T14 construct: not shown: HA tag; MYC tag
T14 sequence (P32781 19-87 limits assumed): as above

[15] = biological target: T15, hCA-IX PG domain fragment #11 (aa 37-71) displayed on yeast as Aga2-HA-CA9-MYC (pPNL6), clone 11 A + B (human, UniProt P32781 19-87 (Saccharomyces cerevisiae entry)); assay: as above
T15 construct: not shown: HA tag; MYC tag
T15 sequence (P32781 19-87 limits assumed, chain 1 of 2): as the sequence (P32781 19-87 limits assumed) above
T15 sequence (chain (part 2 of 2), as listed by the source limits assumed, chain 2 of 2): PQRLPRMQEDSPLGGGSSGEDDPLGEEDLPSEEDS

[16] = biological target: T16, hCA-IX PG domain fragment #12 (aa 67-111) displayed on yeast as Aga2-HA-CA9-MYC (pPNL6), clone 12 A + B (human, UniProt P32781 19-87 (Saccharomyces cerevisiae entry)); assay: as above
T16 construct: not shown: HA tag; MYC tag
T16 sequence (P32781 19-87 limits assumed, chain 1 of 2): as the sequence (P32781 19-87 limits assumed) above
T16 sequence (chain (part 2 of 2), as listed by the source limits assumed, chain 2 of 2): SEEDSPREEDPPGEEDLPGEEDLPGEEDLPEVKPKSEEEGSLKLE

[17] = biological target: T17, hCA-IX PG domain fragment #13 (aa 107-140) displayed on yeast as Aga2-HA-CA9-MYC (pPNL6), clone 13 A + B (human, UniProt P32781 19-87 (Saccharomyces cerevisiae entry)); assay: as above
T17 construct: not shown: HA tag; MYC tag
T17 sequence (P32781 19-87 limits assumed, chain 1 of 2): as the sequence (P32781 19-87 limits assumed) above
T17 sequence (chain (part 2 of 2), as listed by the source limits assumed, chain 2 of 2): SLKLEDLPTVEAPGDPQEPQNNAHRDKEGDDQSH

[18] = biological target: T18, hCA-IX PG domain fragment #14 (aa 37-140) displayed on yeast as Aga2-HA-CA9-MYC (pPNL6), clone 14 A + B (human, UniProt P32781 19-87 (Saccharomyces cerevisiae entry)); assay: as above
T18 construct: not shown: HA tag; MYC tag
T18 sequence (P32781 19-87 limits assumed, chain 1 of 2): as the sequence (P32781 19-87 limits assumed) above
T18 sequence (chain (part 2 of 2), as listed by the source limits assumed, chain 2 of 2): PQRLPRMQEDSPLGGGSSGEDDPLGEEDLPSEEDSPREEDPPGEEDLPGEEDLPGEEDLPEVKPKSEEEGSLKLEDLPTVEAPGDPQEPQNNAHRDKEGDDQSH

[19] = biological target: T19, dimeric CA-IX extracellular domain (ECD) from mouse (mouse, UniProt Q8VHB5 32-390); assay: SPR, antibody captured by anti-human Fc, specific binding yes/no
T19 construct: extracellular domain
T19 sequence (Q8VHB5 32-390): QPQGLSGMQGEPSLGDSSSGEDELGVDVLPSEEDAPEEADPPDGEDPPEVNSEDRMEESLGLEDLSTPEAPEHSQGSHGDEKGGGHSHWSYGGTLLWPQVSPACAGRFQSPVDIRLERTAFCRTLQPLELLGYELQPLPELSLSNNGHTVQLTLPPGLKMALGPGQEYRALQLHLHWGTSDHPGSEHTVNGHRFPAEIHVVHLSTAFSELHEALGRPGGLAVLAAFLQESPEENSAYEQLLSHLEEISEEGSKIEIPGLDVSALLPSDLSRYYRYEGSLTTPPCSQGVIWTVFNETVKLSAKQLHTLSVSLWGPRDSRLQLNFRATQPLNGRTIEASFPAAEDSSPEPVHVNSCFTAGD

[20] = biological target: hCA-IX fragment 8 (aa 38-414, +PG+CA+) displayed on yeast as Aga2-HA-CA9-MYC (pPNL6), clone 8B (human, UniProt P32781 19-87; Q16790 38-414); assay: YSD whole yeast cell ELISA, native, normalised to anti-MYC; native fragment on yeast (Table 7)
Chain of hCA-IX fragment 8 (aa 38-414, +PG+CA+) displayed on yeast as Aga2-HA-CA9-MYC (pPNL6), clone 8B (P32781 19-87 limits assumed, chain 1 of 2, other chains not shown): as the sequence (P32781 19-87 limits assumed) above

Measured: binding result

T1 sequence (P32781 19-87 limits assumed, chain 1 of 2, other chains not shown): as the sequence (P32781 19-87 limits assumed) above

B1: c2C7 (chimeric 2C7, human IgG1 / human kappa 1) (antibody, V domains shown)
VH: QVQLQQSGPELVKPGASVRISCKASGFTFTSCYIHWMKQRPGQGLEWIGWIYPGNGNTKYNEIFKGRATLTTDKSSSTAYMQLSSLTSEDSAVYFCARGDTTANTMDYWGQGTSVTVSS
VL: DIQMTQSPASLSASVGETVTITCRASGNIHNYLAWYQQKQGKSPQLLVYNTITLADGVPSRFSGSGSGTQYSLKINSLQPEDFGSYYCQHFWNIPFTFGAGTKLELKR
notes: Expressed in CHO cells
no binding (tested: 100 nM): [2] | [3] | [4] | [5]
binds: [20]
no binding: all other assays above
